Data as given in US20200223906A1 (Adimab, published 2020).
Changes are numbered by the printed parent chain.

B1: ADI-19003 (antibody, V domains shown)
VH: QVQLQESGPGLVKPSETLSLTCSVSGGSITNVNYYWGWIRQPPGKGLEWIGSIYYNGNTYYNPSLQSRVTMSVDTSKNHFSLRLTSVTAADTAVYFCAREGPNWELLNAFDIWGQGTTVTVSS
VL: SYELTQPPSVSVAPGQTARITCGGNNIGSKNVHWYQQKPGQAPVLVVYEDTHRPSGIPERFSGSNSGNTATLTISRVEAGDEADYYCQVWDTSSDHVVFGGGTKLTVL
B2: ADI-19009 (antibody, V domains shown)
VH: QVQLVQSGAEVKRPGSSVKVSCKASGGTFRGYHISWVRQAPGQGLEWMGGIIHLFGTVSYAPKFQGRVTITADASTGTAHMELSSLTSDDTAIYYCARDAYEVWTGSYLPPFDYWGQGTLVTVSS
VL: DIVMTQTPGTLSLSPGERVTLSCRASQTVTSSYLAWYQQKPGQAPRLLIYGAFTRATGIPDRFSGSGSGTDFTLTISRLEPEDFAVYYCQQYGSSFLTFGGGTKLEIK
B3: ADI-19011 (antibody, V domains shown)
VH: EVQLVESGGGVVQPGGSLRLSCAGSGFAFGSFAMHWVRQAPGKGLEWVAVISFDGKNTKYADSVKGRFTTSRDNSRNTLYLQMDSLRGDDTAIYYCATIRGIVAGLCDNWGQGTLVTVSS
VL: QPVLTQSSSDSASLGASVKLTCTLSSGHRNYIIAWHQQQPGKAPRFLMKVEGSGSFTMGSGVPDRFSGSSSGADRYLTISNLQSEDEADYYCEAWDFNTGGVFGGGTQLTVL
B4: ADI-19005 (antibody, V domains shown)
VH: QVQLVQSGAEVKKPGASVRVSCKASGYTFTDYFMNWVRQAPGGGLEWMGWINPLSGVTKYAQQFQGSVTMTTDTSITTGYMELRSLRVDDTAVYYCASQSSPYTPGAMGVWGQGTTVTVSS
VL: DIRMTQSPSSLSASVGDRVTITCRTSQSVSGYLSWYQQKPGKAPKLLIYAASNLYSGVPSRFSGSGSGTDFTLTITSLQPEDFATYFCQLNSGALFTFGPGTKVEIK
B5: ADI-19017 (antibody, V domains shown)
VH: B4 VH with S21T
VL: SYELIQLPSVSVSPGQTARITCSGDALPKQYAYWYQQKPGQAPVLVIYKDSERPSGIPERFSGSSSGTTVTLTISGVQAEDEADYYCQSADSSGTYPVVFGGGTKLTVL
B6: ADI-19006 (antibody, V domains shown)
VH: EVQLVESGGGLVKPGESVKLSCAASGFTITDSYMAWIRQSPGKGLEWLAYISSTSLFTDYTDSVKGRFIITRDNAENSLYLQMTSLTPADTGVYFCARAKTSYYFYALDVWGPGTLVTVSS
VL: ETTLTQSPGTLSLSPGERATLSCRASQSVNNNYLAWFQHKPGQAPRLLIYNASNRAAGIPDRFSGSGSGTDFTLTISKLEPGDSAVYYCQRYGNSWPFGQGTKVEIK
B7: ADI-18888 (antibody, V domains shown)
VH: QVQLVESGGGVVQPGRSLRLSCVASGFSFSMHGMHWVRQAPGKGLEWVTAIWYDGSNKYYADSVKGRFTISRDNSRNTLYLQMNSLRAEDTAVYYCARDHASTPYYMDVWGKGTTVTVSS
VL: ETTLTQSPGTLSLSPGESATLSCRTSQRISSTYLAWYRQKPGQAPRLLMYGASSRATGIPDRFSGSGSGTDFTLTISSLEPEDFALYYCQQYGSFPWTFGQGTKLEIK
notes: full-length IgG from yeast; also called Antibody Number 243; Ab # 243
B8: ADI-18906 (antibody, V domains shown)
VH: B7 VH with Q1E
VL: B7 VL with L105V
notes: full-length IgG from yeast
B9: ADI-19008 (antibody, V domains shown)
VH: EVQLVESGGGVVQPGRSLRLSCVASGFSFSAYGMHWVRQVPTKGLEWVAVISYDGRDIYYTDSVKGRFTISRDNSKNMLYLQMNSLRPEDRAVYYCARDPSLGYNNHYFDYWGQGTLVTVSS
VL: EIVLTQSPATLSLSPGETATLSCRASQSVTGNLAWYQQKPGQAPRLLIYAASNRATGIPARFSGSGSGTDFTLTISSLEPEDFAVYFCQQRSNWPPMYSFGQGTKLEIK
B10: ADI-19002 (antibody, V domains shown)
VH: EVQLVESGPGLVKPSETLSLTCTVSGGSVSGHYWSWIRQFPGKELEWIGHIYYIGTTNYNPSLKSRVIISLDTSKNQLSLKLSSVTAADTAVYYCARQFGYDKNTLSRLDFDYWGQGTLVTVSS
VL: DIQMTQSPSSLSASVRDRVTITCRASQSISSYLNWYQQRPGKAPKLLIYSAFSLHSGVPSRFSGSGSETEFTLTISSLQPDDFATYYCQQSYSIPWTFGQGTKVEIK
B11: ADI-18997 (antibody, V domains shown)
VH: QVQLQQWGAGLLKPSETLSLTCAVSGGYFINDNWSWIRQSPGKGLEWIGEISHSGSTNYNPSLKSRLTISVDTSRQQFSLKLSSVTAADSGVYYCARVHPSYDFGWRFFDFWGQGTLVTVSS
VL: ETTLTQSPATLSVSPGDTATLSCRASQTISSNLAWYQQKPGQPPSLLIYGASNRATGIPDRFRGSGSGTEFTLTISSLQSEDFAVYYCQQYAYWPPYTFGQGTKVEIK
B12: ADI-19010 (antibody, V domains shown)
VH: EVQLVESGGGLVKPGGSLRLSCAASGFTFSSYSMNWVRQAPGKGLEWVSSISSSSSYIYYADSVKGRFTISRDNAKNSLYLQMNSLRAEDTAVYYCARDVQYSGYDSGYYFDYWGQGTLVTVSS
VL: QPVLTQPPSVSGAPGQRVTISCTGSSSNIGAGYDVHWYQQLPGTAPKLLIYGNSNRPSGVPDRFSGSKSGTSASLAITGLQAEDEADYYCQSYDSSLSALYVFGTGTKVTVL
B13: ADI-19016 (antibody, V domains shown)
VH: QVQLVESGGGLVKPGGSLRLSCVASGFTFSSYAMNWVRQAPGKGLDWVSSISAGSNFIDDADSVKGRFTISRDNARNSLFLQMNSLRAEDTAVYYCARIGYSSAHHYQYYMDVWGTGTTVTVSS
VL: B12 VL with P2S, Q40D, S54T, T71A, A76V, S95K, A99G, L100G
B14: ADI-19004 (antibody, V domains shown)
VH: QVQLVQSGAEVKKPGASVKVSCKTSGYTFSHFGVTWIRQAPGQGLEWLGWISAYNGNTDSADKLQGRLTMTTDTSTNTAYMELRSLRSDDTAVYYCARDPPASAAAMLDYWGQGTLVTVSS
VL: DIQMTQSPLSLAVTLGQPASISCRSSQGLEYTDGNTYLSWFQQRPGQSPRRLIYKVSNRDSGVPDRFSGSGAGTDFTLRISRVEAEDVGVYYCMQGTHGRGISFGPGTKVDIK

Tests used:
[1] = target: RSV F protein of subtype B (18537) on recombinant mKate-RSV (respiratory syncytial virus subtype B …, UniProt P13843 26-574); test: cell-based or functional assay
[2] = target: RSV F protein of subtype A (strain A2) on recombinant mKate-RSV (respiratory syncytial virus subtype A …, UniProt P03420 26-574); test: cell-based or functional assay
[3] = target: T1, RSV F subtype B, furin-cleaved ectodomain stabilized in the postfusion conformation (F ΔFP) (Respiratory syncytial virus subtype B); test: BLI, IgG on AHQ sensor, 100 nM antigen
T1 construct: extracellular domain; Trimeric soluble antigen; also called Postfusion subtype B

[4] = target: RSV F protein of subtype B (18537) on recombinant mKate-RSV virus (Respiratory syncytial virus subtype B …, UniProt P13843 26-574); test: cell-based or functional assay
[5] = target: RSV F protein of subtype A (strain A2) on recombinant mKate-RSV virus (Respiratory syncytial virus subtype A …, UniProt P03420 26-574); test: cell-based or functional assay

Row | Binder | Neut IC50 subtype B [1] [µg/mL] | Neut IC50 subtype A [2] [µg/mL] | Kd [3] [nM] | Neut IC50 (µg/ml) subtype B [4] [µg/mL] | Neut IC50 (µg/ml) subtype A [5] [µg/mL]
1 | B1 | 0.125 | 0.047 |  |  | 
2 | B2 | 0.066 | 0.062 |  |  | 
3 | B3 | 6.24 | > 10 |  |  | 
4 | B4 | 0.11 | 0.041 |  |  | 
5 | B5 | 0.795 | 1.56 |  |  | 
6 | B6 | 5.06 | 4.89 |  |  | 
7 | B7 |  |  | 1.16 | > 10 | > 10
8 | B8 |  |  | 1.1 | > 10 | > 10
9 | B9 | > 10 | 8.29 |  |  | 
10 | B10 | 4.51 | 2.89 |  |  | 
11 | B11 | > 10 | > 10 |  |  | 
12 | B12 | 0.65 | > 10 |  |  | 
13 | B13 | 0.092 | 0.052 |  |  | 
14 | B14 | 0.128 | 0.02 |  |  | 
